Values belong to the binder of their own block, whether it stands above or below them.
What was measured:
[1] = molecular target: T1, murine IL-10 receptor IgG immunoadhesin (murine, UniProt Q61727 17-241); assay: bead depletion assay (immunoadhesin on beads, unbound hIL-10 in filtrate by ELISA), FIG. 1 top
T1 construct: Used as specificity control; also called murine IL-10 R immunoadhesin; murine IL-10 receptor immunoadhesin; not shown: IgG backbone
T1 sequence (looked up): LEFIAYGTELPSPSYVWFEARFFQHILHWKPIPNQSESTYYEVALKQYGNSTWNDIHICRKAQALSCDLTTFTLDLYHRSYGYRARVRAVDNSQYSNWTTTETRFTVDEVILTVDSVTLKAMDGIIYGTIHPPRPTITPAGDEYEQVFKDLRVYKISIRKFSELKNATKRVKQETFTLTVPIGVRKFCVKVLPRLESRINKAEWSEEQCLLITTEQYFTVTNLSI

[2] = molecular target: T2, murine IL-4 receptor IgG immunoadhesin (murine, UniProt P16382 26-233); assay: as above
T2 construct: Tested as concentrated supernatant of vaccinia-infected cells; also called murine IL-4 receptor immunoadhesin; mIL-4R IgG immunoadhesin; not shown: IgG backbone
T2 sequence (looked up): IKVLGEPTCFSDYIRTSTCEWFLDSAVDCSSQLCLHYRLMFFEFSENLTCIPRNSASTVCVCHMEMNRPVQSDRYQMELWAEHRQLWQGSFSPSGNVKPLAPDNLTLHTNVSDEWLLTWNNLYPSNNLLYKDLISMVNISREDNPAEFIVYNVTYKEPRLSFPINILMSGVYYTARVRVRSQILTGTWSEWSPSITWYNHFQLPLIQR

[3] = molecular target: T3, human IL-10 receptor IgG immunoadhesin (human, UniProt Q13651 22-235); assay: bead depletion assay, unbound hIL-10 by ELISA, FIG. 1 top
T3 construct: extracellular domain; Tested as concentrated supernatant of cells infected with recombinant vaccinia; also called human IL-10R adhesin; human IL-10 R adhesin; not shown: human IgG1 heavy chain hinge, CH2 and CH3 domains, amplified from ARH-77 cDNA; joined through a SalI site; residue limit
T3 sequence (looked up): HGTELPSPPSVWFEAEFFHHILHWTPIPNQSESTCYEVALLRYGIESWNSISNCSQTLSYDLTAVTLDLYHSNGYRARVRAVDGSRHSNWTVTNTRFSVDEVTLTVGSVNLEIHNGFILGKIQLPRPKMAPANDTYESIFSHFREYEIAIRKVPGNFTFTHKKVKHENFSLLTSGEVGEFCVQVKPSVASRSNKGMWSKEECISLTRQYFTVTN

[4] = molecular target: T1, murine IL-10 receptor IgG immunoadhesin; assay: bead depletion assay, FIG. 3 top
[5] = molecular target: T4, human IL-10 receptor immunoadhesin (isotype not stated, control of FIG. 3 bottom) (human, UniProt Q13651 22-235); assay: ELISA inhibition, FIG. 3 bottom
T4 construct: extracellular domain; not shown: human IgG1 or IgA1 hinge-CH2-CH3
T4 sequence (looked up): T3 sequence (looked up)

binding result [3]: binds
B1: human IL-10 (ligand, UniProt P22301 19-178, looked up)
chain: SPGQGTQSENSCTHFPGNLPNMLRDLRDAFSRVKTFFQMKDQLDNLLLKESLLEDFKGYLGCQALSEMIQFYLEEVMPQAENQDPDIKAHVNSLGENLKTLRLRLRRCHRFLPCENKSKAVEQVKNAFNKLQEKGIYKAMSEFDIFINYIEAYMTMKIRN
notes: also called hIL-10
binding result [1]: no binding (tested: 250 µl of 200 pg/100 µl of hIL-10) | binding result [2]: no binding (tested: 250 µl of 200 pg/100 µl of hIL-10)

binding result [5]: no binding
B2: murine IL-4 (ligand, UniProt P07750 21-140, looked up)
chain: HIHGCDKNHLREIIGILNEVTGEGTPCTEMDVPNVLTATKNTTESELVCRASKVLRIFYLKHGKTPCLKKNSSVLMELQRLFRAFRCLDSSISCTMNESKSTSLKDFLESLKSIMQMDYS
notes: also called mIL-4
binding result [4]: no binding (tested: 250 µl of 200 pg/100 µl of mIL-4)

Reference: patent US20030206886A1 (UNIVERSITY OF MEDICINE AND DENTISTRY OF NEW JERSEY, published 2003)
